For assay [1], the target named is H7N9病毒的HA蛋白(购自ACROBiosystems) (H7N9 influenza virus). The assay is described as follows: ELISA, negative control on coated HA.
Assay [2] shares this target. The assay is described as follows: ELISA, supernatant of transfected 293F cells on coated HA.
For assay [3], the target named is H7N9病毒 A/Anhui/1/2013 (H7N9 influenza virus A/Anhui/1/2013). Kind of assay: cell-based or functional assay.
Assay [4] has as its target H7N9病毒的HA蛋白(购自ACROBiosystems) (H7N9 influenza virus).

Where “and” joins values, the source holds several entries; their conditions need not be identical. Identical values can stand only once.

This is an account of results in patent CN111434683A.

For the molecule 阴性对照, the 450nm in assay [1] was 0.0675 OD450 and 0.0554 OD450.

B1: 抗H7N9全人源单克隆抗体8D11 (antibody, V domains shown)
VH: QVQLVESGAEVKKPGASVKVSCKASGYIFFTSYDINWVRQATGQGLEWMGWMNPDSGDTGFAQKFQGRVTMTRNTSITTAYMELSSLTSEDTAVYYCATGNADCSGGSCYNWFDPWGQGTLVTVSS
VL: SSELTQDPAVSVALGQTVRITCQGDRLRSYTYASWYQQKPGQAPVLVIYGKNNRPSGIPDRFSGSSSGNTASLTITGAQAEDEADYYCNSRTSGYHLVFGGGTKLTVLV
Consider B1, for which the 450nm in assay [2] was 0.956 OD450 and 0.981 OD450 and 0.742 OD450. This molecule showed an IC50 (微量中和-ELISA, MDCK细胞) in assay [3] of 0.89 µg/mL. Moreover, in assay [4], the equilibrium dissociation constant (Kd) worked out at 8.3 nM.
